Molecular target: CasX2 (StX2, wild-type reference CasX) (Planctomycetes)
Assay: cleavage_in_vitro; kcleave; TTC PAM
Settings: tags: N-terminal SV40 NLS, C-terminal NLS, TEV site and twin Strep tag; label: fluorescent
Description: In vitro cleavage assays were performed essentially as described in Example 19, using CasX 2 (SED ID NO:2), CasX 119, and CasX 438 complexed with single guide 174 with spacer 7.37 targeted against B2M. Fluorescently labeled dsDNA targets that would be complementary with a 7.37 spacer and either a ITC, CTC, CTC, or ATC PAM were used (The DNA sequences used to generate each dsDNA substrate are shown in Table 29. The PAM sequences for each are bolded. TS—target strand. NTS—Non-target strand). Target DNA was incubated with a 20-fold excess of the indicated RNP and the amount of cleaved target was determined at the indicated. time points. The monophasic fit of the combined replicates is shown. During the assay, samples were taken at 0.25, 0.5, 1, 2, 5, 10, 30, and 60 minutes. Gels were imaged with an Amersham Typhoon and quantified using the IQTL 8,2 software. Apparent first-order rate constants for non-target strand cleavage (kcleave) were determined for each Casx:sgRNA complex on each target. Rate constants for targets with non-TTC PAM were compared to the TIC PAM target to determine whether the relative preference for each PAM was altered for a given CasX variant. The results are shown in FIG. 73 (the monophasic fit of the combined replicates is shown) and Table 30. […]

B1: sgRNA 174.7.37 ; 7.37 TTC PAM target (ssRNA ; dsDNA)
RNA: ACUGGCGCUUUUAUCUGAUUACUUUGAGAGCCAUCACCAGCGACUAUGUCGUAGUGGGUAAAGCUCCCUCUUCGGAGGGAGCAUCAAAGGGCCGAGAUGUCUCGCUCCG
DNA 1: TGAAGCTGACAGCATTCGGGCCGAGATGTCTCGCTCCGTGGCCTTAGCTGTGCTCGCGCT
DNA 2: AGCGCGAGCACAGCTAAGGCCACGGAGCGAGACATCTCGGCCCGAATGCTGTCAGCTTCA
Question: B1 was tested. Which activity did it give?
Answer: The activity was 0.267 min⁻¹.
